The source of these data is publication PMC11658451, “The human Dicer helicase domain is capable of ATP hydrolysis and single-stranded nucleic acid binding” (BMC Biology, 2024).

The target in data set [1] is T1, HEL (Homo sapiens, UniProt Q9UPY3).
T1 construct: gene DICER1; isolated helicase domain, residues 1-624, N-terminal His6 tag (pMCSG7), expressed in E. coli BL21Star, Ni-Sepharose purified
T1 sequence (Q9UPY3 1-624): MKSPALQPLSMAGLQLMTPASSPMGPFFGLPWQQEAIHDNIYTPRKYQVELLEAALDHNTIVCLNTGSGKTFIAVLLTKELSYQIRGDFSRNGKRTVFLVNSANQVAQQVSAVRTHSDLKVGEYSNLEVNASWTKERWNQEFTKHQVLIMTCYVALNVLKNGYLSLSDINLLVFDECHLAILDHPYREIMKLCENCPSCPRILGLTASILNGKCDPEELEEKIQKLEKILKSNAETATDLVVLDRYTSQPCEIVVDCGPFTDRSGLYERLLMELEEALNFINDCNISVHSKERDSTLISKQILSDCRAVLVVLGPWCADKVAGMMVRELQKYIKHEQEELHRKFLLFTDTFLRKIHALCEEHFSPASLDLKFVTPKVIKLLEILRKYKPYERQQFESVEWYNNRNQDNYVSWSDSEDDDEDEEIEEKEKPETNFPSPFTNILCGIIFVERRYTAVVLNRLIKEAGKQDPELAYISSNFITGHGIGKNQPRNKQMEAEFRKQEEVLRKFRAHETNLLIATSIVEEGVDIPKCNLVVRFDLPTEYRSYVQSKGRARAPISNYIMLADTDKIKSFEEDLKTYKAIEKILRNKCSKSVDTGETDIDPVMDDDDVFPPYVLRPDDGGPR
Put plainly: ATP hydrolysis, PAGE of released […]. In kind it is biochemical. Particulars: labelled compound ([γ-32P]-ATP, 2 nM), HEL 2 nM (low turnover); 150 mM NaCl, 50 mM Tris-HCl pH 7.5, 2.5 mM MgCl2, 37 °C.

Data set [2] addresses T2, WT hDicer (Homo sapiens, UniProt Q9UPY3, K70A).
T2 construct: gene DICER1; full-length, 1922 aa, ~220 kDa; expressed in human 293T NoDice cells and purified; K70A variant from Addgene plasmid 41589
Nature of the data set: EMSA with radiolabelled ATP. Particulars: labelled compound ([γ-32P]-ATP, 2 nM); 150 mM NaCl, 50 mM Tris-HCl pH 7.5, 2.5 mM MgCl2, 4 °C, no RNA; Walker A mutant; weak binding, Kd could not be determined.

The target in data set [3] is T3, WT hDicer (Homo sapiens, UniProt Q9UPY3).
T3 construct: gene DICER1; full-length, 1922 aa, ~220 kDa; expressed in human 293T NoDice cells and purified; K70A variant from Addgene plasmid 41589
Put plainly: EMSA with radiolabelled ATP. In kind it is binding. (A gel shift assay detects complexes by their altered migration in electrophoresis.)

Data set [4] concerns the target T4, HEL (hDicer helicase domain) (Homo sapiens, UniProt Q9UPY3 1-624).
T4 sequence: T1 sequence (Q9UPY3 1-624)
Put plainly: CD thermal melting; HEL transitions shift to 52 and 74 C; RNA transition 75 to 60 C; 50 mM Tris-HCl pH 7.5, 150 mM NaCl; EMSA 15 min at room temperature (also 4 and 37 C), 5% native PAA gel in 1x TBE at 4 C; BLI 23 C. Particulars: protein: recombinant; tags: N-terminal His6 (pMCSG7); label: 5' 32P (EMSA); none (BLI); partly self-paired (predicted).

The target in data set [5] is T4, HEL (hDicer helicase domain). Nature of the data set: BLI; 23 C, HEL immobilized; 50 mM Tris-HCl pH 7.5, 150 mM NaCl; EMSA 15 min at room temperature (also 4 and 37 C), 5% native PAA gel in 1x TBE at 4 C; BLI 23 C. The note with it: protein: recombinant; tags: N-terminal His6 (pMCSG7); label: 5' 32P (EMSA); none (BLI). (In general: Biolayer interferometry detects binding as a change in optical thickness at a sensor tip.)

Data set [6] shares this target. Put plainly: EMSA; 50 mM Tris-HCl pH 7.5, 150 mM NaCl; EMSA 15 min at room temperature (also 4 and 37 C), 5% native PAA gel in 1x TBE at 4 C; BLI 23 C. The note with it: protein: recombinant; tags: N-terminal His6 (pMCSG7); label: 5' 32P (EMSA); none (BLI).
For data set [7] the target is unchanged. Nature of the data set: EMSA; up to 95 uM HEL; 50 mM Tris-HCl pH 7.5, 150 mM NaCl; EMSA 15 min at room temperature (also 4 and 37 C), 5% native PAA gel in 1x TBE at 4 C; BLI 23 C. The note with it: protein: recombinant, tags: N-terminal His6 (pMCSG7).
Data set [8] shares this target. Nature of the data set: SAXS; 1:1 complex; 50 mM Tris-HCl pH 7.5, 150 mM NaCl; EMSA 15 min at room temperature (also 4 and 37 C), 5% native PAA gel in 1x TBE at 4 C; BLI 23 C. The note with it: protein: recombinant, tags: N-terminal His6 (pMCSG7), label: 5' 32P (EMSA), hairpin.
Data set [9] has the same target. Nature of the data set: EMSA; 37 C; 50 mM Tris-HCl pH 7.5, 150 mM NaCl; EMSA 15 min at room temperature (also 4 and 37 C), 5% native PAA gel in 1x TBE at 4 C; BLI 23 C. The note with it: protein: recombinant; tags: N-terminal His6 (pMCSG7); label: 5' 32P; unstructured.
Data set [10] has the same target. Put plainly: EMSA; distinct complex; 50 mM Tris-HCl pH 7.5, 150 mM NaCl; EMSA 15 min at room temperature (also 4 and 37 C), 5% native PAA gel in 1x TBE at 4 C; BLI 23 C. The note with it: protein: recombinant; tags: N-terminal His6 (pMCSG7); label: 5' 32P (EMSA); none (BLI).
Data set [11] has the same target. Nature of the data set: EMSA; room temperature; 50 mM Tris-HCl pH 7.5, 150 mM NaCl; EMSA 15 min at room temperature (also 4 and 37 C), 5% native PAA gel in 1x TBE at 4 C; BLI 23 C. The note with it: protein: recombinant; tags: N-terminal His6 (pMCSG7); label: 5' 32P; unstructured.
Where [12] appears, read: label: 5' 32P on one strand, blunt.
Where [13] appears, read: label: 5' 32P on one strand, 3' overhang 2 nt on each end.

T2 sequence (Q9UPY3 whole entry K70A): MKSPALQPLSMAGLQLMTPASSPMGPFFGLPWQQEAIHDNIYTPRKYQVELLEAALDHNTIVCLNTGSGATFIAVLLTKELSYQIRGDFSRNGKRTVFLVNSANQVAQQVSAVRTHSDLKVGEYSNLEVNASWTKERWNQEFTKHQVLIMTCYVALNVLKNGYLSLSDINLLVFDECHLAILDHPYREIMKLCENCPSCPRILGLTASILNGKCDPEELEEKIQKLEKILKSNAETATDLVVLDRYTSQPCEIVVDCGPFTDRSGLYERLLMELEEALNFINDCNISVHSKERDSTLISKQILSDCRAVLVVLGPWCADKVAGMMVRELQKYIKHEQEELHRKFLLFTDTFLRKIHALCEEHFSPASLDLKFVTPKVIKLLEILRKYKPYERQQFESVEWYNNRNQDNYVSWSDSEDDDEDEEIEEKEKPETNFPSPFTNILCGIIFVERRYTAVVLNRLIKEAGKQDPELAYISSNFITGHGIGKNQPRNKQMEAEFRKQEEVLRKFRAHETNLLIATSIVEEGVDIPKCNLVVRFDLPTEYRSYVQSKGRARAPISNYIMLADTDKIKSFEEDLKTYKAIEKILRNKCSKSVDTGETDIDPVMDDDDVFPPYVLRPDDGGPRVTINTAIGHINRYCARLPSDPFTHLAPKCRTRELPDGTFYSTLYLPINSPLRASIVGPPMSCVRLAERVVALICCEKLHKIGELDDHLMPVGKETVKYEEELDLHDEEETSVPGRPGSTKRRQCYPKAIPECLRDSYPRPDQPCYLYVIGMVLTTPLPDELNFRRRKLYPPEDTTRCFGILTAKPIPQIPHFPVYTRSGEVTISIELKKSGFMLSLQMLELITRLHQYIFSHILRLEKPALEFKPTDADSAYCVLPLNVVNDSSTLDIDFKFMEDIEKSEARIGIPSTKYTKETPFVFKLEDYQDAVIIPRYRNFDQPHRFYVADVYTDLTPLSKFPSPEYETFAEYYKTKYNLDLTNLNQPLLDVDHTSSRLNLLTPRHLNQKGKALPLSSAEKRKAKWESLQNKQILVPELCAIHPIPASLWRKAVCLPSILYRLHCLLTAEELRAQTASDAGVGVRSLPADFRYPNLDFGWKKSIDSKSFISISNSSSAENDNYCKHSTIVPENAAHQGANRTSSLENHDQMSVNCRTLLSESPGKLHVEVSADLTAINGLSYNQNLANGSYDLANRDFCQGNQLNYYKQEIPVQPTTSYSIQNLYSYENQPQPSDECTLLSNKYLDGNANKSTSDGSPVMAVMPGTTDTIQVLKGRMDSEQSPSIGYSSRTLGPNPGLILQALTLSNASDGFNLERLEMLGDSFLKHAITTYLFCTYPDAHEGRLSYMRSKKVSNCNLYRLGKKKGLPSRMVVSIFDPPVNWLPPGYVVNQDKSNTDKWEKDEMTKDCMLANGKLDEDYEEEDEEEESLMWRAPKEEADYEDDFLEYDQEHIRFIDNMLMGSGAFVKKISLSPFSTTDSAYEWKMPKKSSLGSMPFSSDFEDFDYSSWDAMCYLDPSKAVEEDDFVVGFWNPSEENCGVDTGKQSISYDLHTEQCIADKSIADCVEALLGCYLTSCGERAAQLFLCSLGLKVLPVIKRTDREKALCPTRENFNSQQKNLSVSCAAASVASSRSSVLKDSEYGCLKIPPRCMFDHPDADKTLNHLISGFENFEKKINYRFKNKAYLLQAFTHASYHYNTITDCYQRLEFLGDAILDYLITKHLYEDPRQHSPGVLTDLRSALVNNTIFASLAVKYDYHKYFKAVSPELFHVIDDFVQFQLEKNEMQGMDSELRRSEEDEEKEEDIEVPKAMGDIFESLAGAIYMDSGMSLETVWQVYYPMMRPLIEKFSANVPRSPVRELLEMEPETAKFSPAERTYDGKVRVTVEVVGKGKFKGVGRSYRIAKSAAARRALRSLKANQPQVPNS

On to `Nc1ncnc2c1ncn2[C@@H]1O[C@H](COP(=O)(O)OP(=O)(O)OP(=O)(O)O)[C@@H](O)[C@H]1O` [ATP], for which the “ATP hydrolysis, PAGE of released 32Pi” value in [1] is “ATP was hydrolyzed in reactions carried out with HEL (Fig. 2a) and WT hDicer”. Moreover, the “EMSA with radiolabelled ATP” value in data set [2] is reported as “only weak ATP binding could be observed for hDicer_K70A”. Further, the Kd in [3] was about 0.085 µM.

B1: R42 (ssRNA)
RNA: GGGAGAAUCAUAAGUAGCCUCCCCCCAUGUUAACAGUUAGCC
On to B1, for which, in data set [4], the binding result is “binds”.

B2: R56 (ssRNA)
RNA: GGGAGAAUCAUAAGUAGCGCAGUGAGUCGUUGUGCUGCCCAUGUUAACAGUUAGCC
Regarding B2, the dissociation constant Kd in data set [5] was about 23 µM.

B3: D56 (ssDNA)
DNA: GGGAGAATCATAAGTAGCGCAGTGAGTCGTTGTGCTGCCCATGTTAACAGTTAGCC
In the case of B3, the dissociation constant (Kd) in [6] is about 7.4 µM; in data set [5] it was about 21 µM.

B4: dsRNA_blunt (dsRNA)
RNA 1: GUGCAUUGUAGUUGCAUUGCAUGUUCUGGUCA
RNA 2: UGACCAGAACAUGCAAUGCAACUACAAUGCAC
With B4, the binding result in data set [7] (setting [12]) was “no binding”.

B5: dsRNA_over (dsRNA)
RNA 1: B4 RNA 1
RNA 2: ACCAGAACAUGCAAUGCAACUACAAUGCACAU
For the molecule B5, the binding result in [7] (setting [13]) is reported as “no binding”.

B6: pre-mir-16-1 (structured_RNA)
RNA: UAGCAGCACGUAAAUAUUGGCGUUAAGAUUCUAAAAUUAUCUCCAGUAUUAACUGUGCUGCUGAA
Take B6: in data set [8] (9-nt apical loop), the binding result is listed as “binds”.

B7: pre-mir-21 (structured_RNA)
RNA: AGCUUAUCAGACUGAUGUUGACUGUUGAAUCUCAUGGCAACACCAGUCGAUGGGCUGU
Turning to B7, the binding result in data set [8] was “binds”.

B8: D12 (ssDNA)
DNA: GAATCTTAACGC
For B8, in [7] (label: 5' 32P), the binding result is reported as “no binding”.

B9: R12 (ssRNA)
RNA: GAAUCUUAACGC
On to B9, for which, in [7] (label: 5' 32P), the binding result is recorded as “no binding”.

B10: D42 (ssDNA)
DNA: GGGAGAATCATAAGTAGCCTCCCCCCATGTTAACAGTTAGCC
Turning to B10, the figures for the Kd in data set [6] and in [5] were about 8.5 µM and about 22 µM, respectively.

B11: (CU)21 (ssRNA)
RNA: CUCUCUCUCUCUCUCUCUCUCUCUCUCUCUCUCUCUCUCUCU
On to B11, for which the binding result in data set [9] was “binds”.

B12: D32 (ssDNA)
DNA: GTGCATTGTAGTTGCATTGCATGTTCTGGTCA
Turning to B12, the binding result in [10] is “binds”.

B13: dsDNA_blunt (dsDNA)
DNA 1: B12 DNA
DNA 2: TGACCAGAACATGCAATGCAACTACAATGCAC
With B13, in [7] (setting [12]), the binding result is “no binding”.

B14: dsDNA_over (dsDNA)
DNA 1: B12 DNA
DNA 2: ACCAGAACATGCAATGCAACTACAATGCACAT
For B14, the binding result in data set [7] (setting [13]) was “no binding”.

B15: (AC)21 (ssRNA)
RNA: ACACACACACACACACACACACACACACACACACACACACAC
In the case of B15, the binding result in [11] was “binds”.

The term Kd denotes the equilibrium constant for the complex coming apart.
